Columns and labels:
Rv0792c = biological target: T1, Rv0792c (Mycobacterium tuberculosis, UniProt O86331); experiment: […]; EMSA with Cy5-labeled native promoter; type: binding
T1 construct: His6-Rv0792c

[1] = biological target: T2, Rv0792c (HutC, GntR family) (Mycobacterium tuberculosis) (UniProt O86331); experiment: ALISA (plate-immobilized protein)
T2 sequence (O86331 whole entry, looked up): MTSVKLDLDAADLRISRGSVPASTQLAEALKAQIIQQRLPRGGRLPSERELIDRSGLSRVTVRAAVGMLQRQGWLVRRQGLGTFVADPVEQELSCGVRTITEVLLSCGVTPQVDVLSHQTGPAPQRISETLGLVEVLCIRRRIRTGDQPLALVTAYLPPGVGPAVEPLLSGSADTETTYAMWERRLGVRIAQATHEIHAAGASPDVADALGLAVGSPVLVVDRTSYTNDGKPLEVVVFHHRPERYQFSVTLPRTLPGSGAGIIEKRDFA

[2] = biological target: T2, Rv0792c (HutC, GntR family) (Mycobacterium tuberculosis); experiment: competitive ALISA
[3] = biological target: the molecule itself; experiment: AUC; sedimentation velocity; Rv0792c at 0.38, 0.76 and 1.52 mg/mL in 25 mM HEPES pH 7.2, 400 mM NaCl, 10% glycerol; 40,000 rpm; absorbance at 280 nm; c(s) analysis with SedFit; S20,w

Molecule `COc1cc(/C=C(\C#N)C(=O)c2ccc(O)c(O)c2)cc(I)c1O` [I-OMe-Tyrphostin, (2E)-2-(3,4-dihydroxybenzoyl)-3-(4-hydroxy-3-iodo-5-methoxyphenyl) acrylonitrile] has an IC50 (Rv0792c) of roughly 109 nM.

For “TCTAGTCATTCGTCATAATCCCATCTGTTTCTTCCTCCTTCCGT [Rv0792c_2 aptamer (also Rv0729c_2)]”, the Kd [1] was 51 nM and the IC50 [2] was 109 nM.

B1: Rv0792c from Mycobacterium tuberculosis, wild type, with an amino-terminal histidine tag (natural protein)
chain: T2 sequence (O86331 whole entry, looked up)
notes: also called His6-Rv0792c; (His)6-Rv0792c; not shown: His6, N-terminal, kept
In the case of B1, the “stoichiometry N” value [3] is reported as 2.

Reference: article PMC9927256, “Structural and Functional Characterization of Rv0792c from Mycobacterium tuberculosis: Identifying Small Molecule Inhibitor against HutC Protein” (Microbiology Spectrum, 2022)
